The values below come from patent publication US20090291081A1 (AbbVie / Abbott, published 2009).

The chains are these.
T1: human IL-1α (human, UniProt P01583 113-271)
T1 construct: also called IL-1alpha; hIL-1α
T1 sequence (looked up): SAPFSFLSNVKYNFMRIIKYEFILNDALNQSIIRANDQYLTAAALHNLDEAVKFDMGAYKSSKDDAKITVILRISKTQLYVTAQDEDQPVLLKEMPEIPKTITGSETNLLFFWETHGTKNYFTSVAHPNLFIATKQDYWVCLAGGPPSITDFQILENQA

B1: ABT1-130 (other)
VL: DIQMTQSPSSLSASVGDRVTITCRASQEIGLWLSWYQQKSGKAPKLLIYRHSSSQSGVPSRFSGSGSGTDFTLTISSLQPEDFATYYCQQTYKAPFTFGQGTKVEIKR
notes: VK dAb
B2: ABT1-145 (other)
VL: DIQMTQSPSSLSASVGDRVTITCRASQDIDDGLAWYQQKPGKAPKLLIYRTSRLQSGVPSRFSGSGSGTDFTLTISSLQPEDFATYYCQPTWLPPCTFGQGTKVEIKR
notes: VK dAb
B3: ABT1-137 (other)
VH: EVQLLESGGGLVQPGGSLRLSCAASGFTFERYWMAWVRQAPGKGLEWVSNINLTGSATYYADSVKGRFTISRDNSKNTLYLQMNSLRAEDTAVYYCAKGAFQFDYWGQGTLVTVSS
notes: VH dAb
B4: ABT1-123 (other)
VL: DIQMTQSPSSLSASVGDRVTITCRASQSIWTELKWYQQKPGKAPKLLIYGASLLQSGVPSRFSGSGSGTDFTLTISSLQPEDFATYYCQQFAYHPHTFGQGTKVEIKR
notes: VK dAb
B5: ABT1-132 (other)
VL: DIQMTQSPSSLSASVGDRVTITCRASQNIATALLWYQQKPGKAPRLLIYDSSQLQSGVPSRFSGSGSGTDFTLTISSLQPEDFATYYCQQMYWVPFTFGQGTKVEIKR
notes: VK dAb
B6: ABT1-141-14 (other)
VL: B5 VL with N28W, A30Q, T31K, A32Q, L34A, D50S, Q53Y, M91N, Y92L, W93S
notes: VK dAb
B7: ABT1-141-7 (other)
VL: DIQMTQSPSSLSASVGDRITITCRASQWIQKQLAWYQLKPGKAPKLLIYSSSYLQSGVPSRFSGSGSGTDFTLTISSLQPEDFATYYCQQHLRVPFTFGQGTKVEIKR
notes: VK dAb
B8: ABT1-141-21 (other)
VL: B7 VL with I19V, L38Q, H91Q, L92M, R93S, V94S, F96R
notes: VK dAb
B9: ABT1-141-16 (other)
VL: B7 VL with I19V, T20A, L38Q, Q90H
notes: VK dAb
B10: ABT1-141-23 (other)
VL: B7 VL with I19V, L38Q, H91Q, L92M, R93Q, V94P, F96R
notes: VK dAb
B11: ABT1-141-22 (other)
VL: B7 VL with I19V, L38Q, H91Q, L92M, R93A, V94P, F96R
notes: VK dAb
B12: ABT1-139 (other)
VH: EVQLLESGGGLVQPGGSLRLSCAASGFTFSDYTMIWVRQAPGKGLEWVSSISARGWGTYYADSVKGRFTISRDNSKNTLYLQMNSLRAEDTAVYYCAKGSPQLVLPFDYWGQGTLVTVSS
notes: VH dAb
B13: ABT1-159 (other)
VL: DIQMTQSPSSLSASVGDRVTITCRASSPIGMDLFWYQQKPGKAPRLLIDGVSGLQSGVPSRFSGSGSGTDFTLTISSLQPEDFATYYCSQHWPAPLTFGQGTKVEIKR
notes: VK dAb
B14: ABT1-150 (other)
VL: DIQMTQSPSSLSASVGDRVTITCRASQSISSYLNWYQQKPGKAPKLLIGGVSGLQSGVPSRFSGSGSGTDFTLTISSLQPEDFATYYCMQWWRWPSTFGQGTKVEIKRAAAEQKLISEED
notes: VK dAb
B15: ABT1-151 (other)
VL: B14 VL with V51R, M89G, W92Y, W94H, S96A
notes: VK dAb
B16: ABT1-152 (other)
VL: B14 VL with V51R, S76G, W92Y, W94A
notes: VK dAb
B17: ABT1-172 (other)
VL: DIQMTQSPSSLSASVGDRVTITCRASQRIRNGLEWYQQKPGKAPKLLIWGSSRLQSGVPSRFSGSGSGTDFTLTISSLQPEDFATYYCAQTVWGPATFGQGTKVEIKR
notes: VK dAb
B18: ABT1-144 (other)
VL: DIQMTQSPSSLSASVGDRVTITCRASQRIKKYLAWYQQKPGKAPRLLIYRSSQLQSGVPSRFSGSGSGTDFTLTISSLQPEDFATYYCQQSFKRPVTFGQGTKVEIKR
notes: VK dAb
B19: ABT1-141-18 (other)
VL: B7 VL with I19V, L38Q, A43V
notes: VK dAb
B20: ABT1-141-46 (other)
VL: B7 VL with I19V, L38Q, Y53H, F96M, E105V
notes: VK dAb
B21: ABT1-141-17 (other)
VL: B7 VL with I19V
notes: VK dAb
B22: ABT1-141-1 (other)
VL: B7 VL with I19V, L38Q, S51G, Y53W, F98L
notes: VK dAb
B23: ABT1-141-9 (other)
VL: B7 VL with M4V, I19V, L38Q, Y53W
notes: VK dAb
B24: ABT1-141-8 (other)
VL: B7 VL with I19V, Y53W
notes: VK dAb
B25: ABT1-141-6 (other)
VL: B7 VL with I19V, L38Q, Q89L
notes: VK dAb
B26: ABT1-141-3 (other)
VL: B7 VL with I19V, L38Q, A43T, S51Q, Y53H
notes: VK dAb
B27: ABT1-142 (other)
VL: DIQMTQSPSSLSASVGDRVTITCRASQSINDVLAWYQQKPGKAPRLLIYSASYLQSGVPSRFSGSGSGTDFTLTISSLQPEDFATYYCQQYISLPFTFGQGTKVEIKR
notes: VK dAb
B28: ABT1-141-19 (other)
VL: B7 VL with I19V, L38Q, Y53W, P59R
notes: VK dAb
B29: ABT1-141-54 (other)
VL: B7 VL with I19V, L38Q, Y53H, F96M
notes: VK dAb
B30: ABT1-141-35 (other)
VL: B7 VL with I19V, L38Q, S51A, Y53W, F96M
notes: VK dAb
B31: ABT1-141-27 (other)
VL: B7 VL with I19V, L38Q, H91G, V94Q, F96M
notes: VK dAb
B32: ABT1-160 (other)
VL: DIQMTQSPSSLSASVGDRVTITCRASTEIVRNLRWYQQKPGKAPNLLIWGGSTLQSGVPSRFSGSGSGTDFTLTISSLQPEDFATYYCVQGYSLPVTFGQGTKVEIKR
notes: VK dAb
B33: ABT1-154 (other)
VL: B32 VL with N45K, W49S, G51V, T53G, L94W
notes: VK dAb
B34: ABT1-146 (other)
VL: DIQMTQSPSSLSASVGDRVTITCRASQNIKTFLHWYQQKPGKAPKLLIYRVSHLQSGVPSRFSGSGSGTDFTLTISSLQPEDFATYYCQQEYRIPLTFGQGTKVEIKR
notes: VK dAb
B35: ABT1-157 (other)
VL: DIQMTQSPSSLSASVGDRVTITCRASQSISSYLNWYQQKPGKAPKLLIGGVSGLQSGVPSRFSGSGSGTDFTLTISSLQPEDFATYYCMQWSRPPRTFGQGTKVEIKR
notes: VK dAb
B36: ABT1-170 (other)
VL: B35 VL with V51R, M89K, S92Y, P94Y, R96S
notes: VK dAb
B37: ABT1-168 (other)
VL: B35 VL with V51L, M89L, S92F, R93S, P94E, R96A
notes: VK dAb
B38: ABT1-167 (other)
VL: B35 VL with V51L, S92W, P94Y, R96P
notes: VK dAb
B39: ABT1-171 (other)
VL: B35 VL with V51R, S92F
notes: VK dAb
B40: ABT1-166 (other)
VL: B35 VL with V51L, M89G, S92A, P94A, R96M
notes: VK dAb
B41: ABT1-143 (other)
VL: DIQMTQSPSSLSASVGDRVTITCRASQRIDRHLSWYQQKPGKAPKLLIYKTSKLQSGVPSRFSGSGSGTDFTLTISSLQPEDFATYYCQQLHAKPFTFGQGTKVEIKR
notes: VK dAb
B42: ABT1-18 (other)
VL: B27 VL with N30Q, D31R, V32W, R45K, S50F, Y53Q, Y91L, I92L, S93R, F96K
B43: ABT1-95-86 (other)
VL: DIQMTQSPSSLSASVGDRVTITCRASQPIVRNLRWYQQKPGKAPKLLIYSTSYLEPGVPSRFSGSGSGTDFTLTISSLQPEDFATYHCQQGYRWPVTFGQGTKVEIKR
B44: ABT1-95-174 (other)
VL: B43 VL with Q27R, T51V, Q89R

Where a chain is given by its changes, count along the chain named.

The first test has as its target T1, human IL-1α. As to the kind of experiment: Table 62 IC50; RBA presumed.
In general, IC50 refers to the point on the concentration scale where inhibition reaches its midpoint. A low value points to inhibition by little substance. B1 gave a half-maximal inhibitory concentration (IC50) of 300 nM.
B2 returned an IC50 above 500 nM.
The same measure, in the same setting: then B3, with 200 nM; and B4, with above 500 nM.
Same read-out and setting: then B5, with 300 nM; and B6, with 10 nM; and B7, with 10 nM.
Still for that read-out and setting: then B8, with 60 nM.
As for B9, it took 20 nM to reach half-maximal inhibition (IC50).
B10: the IC50 was found to be 80 nM.
B11 registered an IC50 of 30 nM.
B12 registered an IC50 of 80 nM.
B13 had an IC50 of 200 nM. This IC50 lies about 2.5-fold higher than the previous one.
The same measure, in the same setting: next, B14: 150 nM; B15: 200 nM; B16: 300 nM.
The molecule B17 had an IC50 above 1000 nM.
The same measure, in the same setting: then B18, with 100 nM; and B19, with 80 nM; and B20, with 3 nM.
Same read-out and setting: then B21, with 30 nM; and B22, with above 100 nM; and B23, with 10 nM.
Regarding B24, half-maximal inhibition (IC50) required 10 nM.
Same read-out and setting: then B25, with 20 nM.
Consider B26, for which the IC50 came out at 80 nM.
The same measure, in the same setting: then B27, with 200 nM; and B28, with 50 nM; and B29, with 3 nM.
Same read-out and setting: then B30, with 10 nM.
B31 yielded an IC50 of 20 nM.
B32 displayed an IC50 of 300 nM.
The same measure, in the same setting: next, B33: above 1000 nM.
The molecule B34 gave an IC50 above 500 nM.
In turn, B35 had an IC50 of 300 nM.
In turn, B36 registered a half-maximal inhibitory concentration (IC50) above 1000 nM.
Still for that read-out and setting: next, B37: above 1000 nM; B38: above 1000 nM.
On to B39, for which the concentration for half-maximal inhibition (IC50) was above 1000 nM.
The same measure, in the same setting: next, B40: above 1000 nM; B41: above 500 nM.

For a further test, the target named is T1, human IL-1α. Kind of test: cell-based or functional assay.
Molecule B42 showed an ND50 above 10000 nM.
The same measure, in the same setting: next, B43: 0.2 nM.
The same measure, in the same setting: then B44, with 0.01 nM.
